Data from patent US20250243260A1 (ALPINE IMMUNE SCIENCES, published 2025).

B1: CD80-Fc-CD80_339 (Fc fusion)
chain: VIHVTKEVKEYATLSCGHNVSVEELAQYRIYWQKEKKMVLTMMSGDLNIWPEYKNRTIFDITNNLSIVILALRPSDEGTYECVVLKYEKDAFKREHLAEVTLSVKADGSGGGGSPCPPCPAPEFLGGPSVFLFPPKPKDTLMISRTPEVTCVVVDVSQEDPEVQFNWYVDGVEVHNAKTKPREEQFNSTYRVVSVLTVLHQDWLNGKEYKCKVSNKGLPSSIEKTISKAKGQPREPQVYTLPPSQEEMTKNQVSLTCLVKGFYPSDIAVEWESNGQPENNYKTTPPVLDSDGSFFLYSRLTVDKSRWQEGNVFSCSVMHEALHNHYTQKSLSLSLGGGGGSGGGGSGGGGSVIHVTKEVKEYATLSCGYNVSVEELAQYRIYWQKEKKMVLTMMSGDLNIWPEYKNRTIFDITNNLSIVILALRPSDEGTYECVVLKYEKDAFKREHLAEVTLSVKAD
notes: also called CD80_185 V11Y/T28Y/M47L barbell
B2: CD80-Fc-CD80_339 (CD80_185 V11Y/T28Y/M47L) (Fc fusion)
chain: VIHVTKEVKEYATLSCGHNVSVEELAQYRIYWQKEKKMVLTMMSGDLNIWPEYKNRTIFDITNNLSIVILALRPSDEGTYECVVLKYEKDAFKREHLAEVTLSVKADGSGGGGSPCPPCPAPEFLGGPSVFLFPPKPKDTLMISRTPEVTCVVVDVSQEDPEVQFNWYVDGVEVHNAKTKPREEQFNSTYRVVSVLTVLHQDWLNGKEYKCKVSNKGLPSSIEKTISKAKGQPREPQVYTLPPSQEEMTKNQVSLTCLVKGFYPSDIAVEWESNGQPENNYKTTPPVLDSDGSFFLYSRLTVDKSRWQEGNVFSCSVMHEALHNHYTQKSLSLSLGGGGGSGGGGSGGGGSVIHVTKEVKEYATLSCGYNVSVEELAQYRIYWQKEKKMVLTMMSGDLNIWPEYKNRTIFDITNNLSIVILALRPSDEGTYECVVLKYEKDAFKREHLAEVTLSVKAD
notes: tetravalent
B3: CD80-Fc-CD80_341 (Fc fusion)
chain: VIHVTKEVKEYATLSCGHNVSVEELAQTRIYWQKDKKMVLTMMSGDMNIWPEYKNRTIFDITNNLSIVILALRPSDEGTYECVVLKQEKDAFKREHLAEVRLSVKADGSGGGGSPCPPCPAPEFLGGPSVFLFPPKPKDTLMISRTPEVTCVVVDVSQEDPEVQFNWYVDGVEVHNAKTKPREEQFNSTYRVVSVLTVLHQDWLNGKEYKCKVSNKGLPSSIEKTISKAKGQPREPQVYTLPPSQEEMTKNQVSLTCLVKGFYPSDIAVEWESNGQPENNYKTTPPVLDSDGSFFLYSRLTVDKSRWQEGNVFSCSVMHEALHNHYTQKSLSLSLGGGGGSGGGGSGGGGSVIHVTKEVKEYATLSCGYNVSVEELAQTRIYWQKDKKMVLTMMSGDMNIWPEYKNRTIFDITNNLSIVILALRPSDEGTYECVVLKQEKDAFKREHLAEVRLSVKAD
notes: also called CD80_197 V11Y/E35D/Y87Q/T101R barbell
B4: CD80-Fc-CD80_338 (CD80_180 E10G/V11W/T28Y/M47L, IgG1 Fc) (Fc fusion)
chain: VIHVTKEVKGWATLSCGHNVSVEELAQYRIYWQKEKKMVLTMMSGDLNIWPEYKNRTIFDITNNLSIVILALRPSDEGTYECVVLKYEKDAFKREHLAEVTLSVKADGSGGGGSDKTHTCPPCPAPEAEGAPSVFLFPPKPKDTLMISRTPEVTCVVVDVSHEDPEVKFNWYVDGVEVHNAKTKPREEQYNSTYRVVSVLTVLHQDWLNGKEYKCKVSNKALPAPIEKTISKAKGQPREPQVYTLPPSRDELTKNQVSLTCLVKGFYPSDIAVEWESNGQPENNYKTTPPVLDSDGSFFLYSKLTVDKSRWQQGNVFSCSVMHEALHNHYTQKSLSLSPGGGGGSGGGGSGGGGSVIHVTKEVKGWATLSCGYNVSVEELAQYRIYWQKEKKMVLTMMSGDLNIWPEYKNRTIFDITNNLSIVILALRPSDEGTYECVVLKYEKDAFKREHLAEVTLSVKAD
notes: tetravalent
B5: CD80-Fc-CD80_338 (Fc fusion)
chain: VIHVTKEVKGWATLSCGHNVSVEELAQYRIYWQKEKKMVLTMMSGDLNIWPEYKNRTIFDITNNLSIVILALRPSDEGTYECVVLKYEKDAFKREHLAEVTLSVKADGSGGGGSDKTHTCPPCPAPEAEGAPSVFLFPPKPKDTLMISRTPEVTCVVVDVSHEDPEVKFNWYVDGVEVHNAKTKPREEQYNSTYRVVSVLTVLHQDWLNGKEYKCKVSNKALPAPIEKTISKAKGQPREPQVYTLPPSRDELTKNQVSLTCLVKGFYPSDIAVEWESNGQPENNYKTTPPVLDSDGSFFLYSKLTVDKSRWQQGNVFSCSVMHEALHNHYTQKSLSLSPGGGGGSGGGGSGGGGSVIHVTKEVKGWATLSCGYNVSVEELAQYRIYWQKEKKMVLTMMSGDLNIWPEYKNRTIFDITNNLSIVILALRPSDEGTYECVVLKYEKDAFKREHLAEVTLSVKAD

Legend:
[1] = molecular target: human CD28 (endogenously expressed on primary human T cells) (human) (UniProt P10747); test: flow cytometry, primary human T cells
[2] = molecular target: T1, human CTLA-4 on CHO cells (human, UniProt P16410 36-223); test: flow cytometry, CHO/CTLA-4 cells
T1 construct: whole, on cells; also called CHO/CTLA-4
Experimental: (§1) Binding affinity to CD28 was determined using primary human T cells which endogenously express CD28. Binding to PD-L1 was determined using SCC152 cells transduced with human PD-L1. Binding to CTLA-4 was measured using Chinese hamster ovary (CHO) cells stably transduced to express human CTLA-4.
(§2) For staining and analysis by flow cytometry, 75,000 human T cells, SCC152/PD-L1 cells, or CHO/CTLA-4 cells were plated in 96-well round-bottom plates. Cells were spun down and resuspended in staining buffer (PBS (phosphate buffered saline), 1% BSA (bovine serum albumin), 1 mM EDTA, and 0.1% sodium azide) for 20 minutes to block non-specific binding. Afterwards, cells were centrifuged, stain buffer aspirated, and then resuspended in 50 μL of a 1:5 serial dilution of each CD80-Fc candidate variant starting at 100 nM ending at 0.8 nM. Primary staining was performed on ice for 60 minutes, before washing cells in […] staining buffer three times. PE-conjugated anti-human Fc (Jackson ImmunoResearch, USA) was diluted 1:250 in 50 μL staining buffer and added to cells and incubated another 30 minutes at 4° C. Cells were washed two times in 150 μL stain buffer and then fixed in 2% formaldehyde/PBS for 5 minutes at room temperature. Samples were analyzed CytoFLEX LX flow cytometer (Beckman Coulter, USA). Median Fluorescence Intensity (MFI) was calculated for each cell type using the CytExpert software from Beckman Coulter.
(§3) Binding assays were carried out to assess the specificity and affinity of multivalent proteins to cell-expressed CTLA-4, CD28, and PD-L1 counter structures.

human CD28 on cells [3] = molecular target: T2, human CD28 on cells (human, UniProt P10747 19-220); test: flow cytometry, primary human T cells
T2 construct: whole, on cells
Experimental: as §1, §2, §3

human PD-L1 [4] = molecular target: T3, human PD-L1 (human, UniProt Q9NZQ7 19-290); test: flow cytometry, SCC152 cells transduced with human PD-L1, anti-human Fc detection
T3 construct: whole, on cells
Experimental: as §1, §2, §3

human PD-L1 [5] = molecular target: T3, human PD-L1; test: flow cytometry, SCC152 cells transduced with human PD-L1; MFI against WT CD80 ECD-Fc
Experimental: as §1, §2, §3

human CD28 on cells [6] = molecular target: T2, human CD28 on cells; test: cell-based or functional assay

T1 sequence (P16410 36-223): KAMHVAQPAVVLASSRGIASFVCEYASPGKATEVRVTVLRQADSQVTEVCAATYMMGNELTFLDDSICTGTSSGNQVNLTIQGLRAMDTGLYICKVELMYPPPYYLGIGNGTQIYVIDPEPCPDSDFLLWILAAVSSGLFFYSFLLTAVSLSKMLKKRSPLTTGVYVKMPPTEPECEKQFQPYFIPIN
T3 sequence (Q9NZQ7 19-290): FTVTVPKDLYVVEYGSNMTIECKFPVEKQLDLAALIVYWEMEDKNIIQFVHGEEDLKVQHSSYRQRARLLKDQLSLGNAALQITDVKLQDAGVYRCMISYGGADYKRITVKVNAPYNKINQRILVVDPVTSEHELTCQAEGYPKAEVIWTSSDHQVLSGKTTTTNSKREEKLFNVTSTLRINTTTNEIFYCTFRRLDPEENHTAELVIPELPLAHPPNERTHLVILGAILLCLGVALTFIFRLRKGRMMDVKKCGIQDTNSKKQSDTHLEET

Row | Molecule | MFI (anti-human Fc) at 0.8 nM [1] [MFI] | MFI (anti-human Fc) at 4 nM [1] [MFI] | MFI (anti-human Fc) at 20 nM [1] [MFI] | Anti-Human Fc (MFI) at 0.8 nM [2] [MFI] | Anti-Human Fc (MFI) at 4 nM [2] [MFI] | Anti-Human Fc (MFI) at 20 nM [2] [MFI] | Anti-Human Fc (MFI) at 100 nM [2] [MFI] | Anti-Human Fc (MFI) at 0.8 nM (human CD28 on cells [3]) [MFI] | Anti-Human Fc (MFI) at 4 nM (human CD28 on cells [3]) [MFI] | Anti-Human Fc (MFI) at 20 nM (human CD28 on cells [3]) [MFI] | Anti-Human Fc (MFI) at 100 nM (human CD28 on cells [3]) [MFI] | also measured
1 | CD80_188-Fc, variant CD80 IgV-Fc E35D/V68L/L85E (Fc fusion) | 201 | 191 | 224 |  |  |  |  |  |  |  |  | 
2 | CD80_194-Fc, variant CD80 IgV-Fc V11Y/M42W/T62A (Fc fusion) | 245 | 246 | 262 |  |  |  |  |  |  |  |  | MFI (anti-human Fc) at 100 nM [1]: 298 MFI; fold change of MFI vs WT CD80 at 20 nM [1]: 1.5 fold
3 | CD80_201-Fc, variant CD80 IgV-Fc E10G/H18Y/T28Y/M47W/T62S (Fc fusion) | 199 | 201 | 254 |  |  |  |  |  |  |  |  | 
4 | B1 |  |  |  | 210000 | 305000 | 322000 | 320000 | 520 | 793 | 1020 | 1380 | 
5 | B2 |  |  |  |  |  |  |  |  |  |  |  | Anti-Human Fc (MFI) at 0.8 nM (human PD-L1 [4]): 4180 MFI; Anti-Human Fc (MFI) at 4 nM (human PD-L1 [4]): 6180 MFI; Anti-Human Fc (MFI) at 20 nM (human PD-L1 [4]): 7120 MFI; Anti-Human Fc (MFI) at 100 nM (human PD-L1 [4]): 8090 MFI; Fold change vs WT CD80 @20 nM (human PD-L1 [5]): 10.4 fold
6 | B3 |  |  |  | 206000 | 280000 | 297000 | 282000 | 676 | 1070 | 1410 | 1740 | Fold Increase over WT at 50 nM (human CD28 on cells [6]): 6.42 fold; Rel. Luminescence Units (RLU) at 2 nM, K562/OKT3/PD-L1 + Jurkat/IL-2 reporter (human CD28 on cells [6]): 13100 RLU; Rel. Luminescence Units (RLU) at 10 nM, K562/OKT3/PD-L1 + Jurkat/IL-2 reporter (human CD28 on cells [6]): 16000 RLU; Rel. Luminescence Units (RLU) at 50 nM, K562/OKT3/PD-L1 + Jurkat/IL-2 reporter (human CD28 on cells [6]): 15700 RLU; Rel. Luminescence Units (RLU) at 250 nM, K562/OKT3/PD-L1 + Jurkat/IL-2 reporter (human CD28 on cells [6]): 15200 RLU; Fold change vs WT CD80 @20 nM [2]: 0.36 fold; Fold change vs WT CD80 @20 nM (human CD28 on cells [3]): 7.8 fold
7 | B4 |  |  |  |  |  |  |  |  |  |  |  | Anti-Human Fc (MFI) at 0.8 nM (human PD-L1 [4]): 6250 MFI; Anti-Human Fc (MFI) at 4 nM (human PD-L1 [4]): 9300 MFI; Anti-Human Fc (MFI) at 20 nM (human PD-L1 [4]): 11000 MFI; Anti-Human Fc (MFI) at 100 nM (human PD-L1 [4]): 12500 MFI; Fold change vs WT CD80 @20 nM (human PD-L1 [5]): 16.2 fold
8 | B5 |  |  |  | 367000 | 439000 | 470000 | 511000 | 552 | 926 | 1350 | 2330 | 
